Reference: publication PMC2607196 (Molecular cell, 2008)

T1: gp130/CNTF-Rα/CNTF ternary complex (human, UniProt P26441 1-200; P40189 23-619)
T1 chain 1: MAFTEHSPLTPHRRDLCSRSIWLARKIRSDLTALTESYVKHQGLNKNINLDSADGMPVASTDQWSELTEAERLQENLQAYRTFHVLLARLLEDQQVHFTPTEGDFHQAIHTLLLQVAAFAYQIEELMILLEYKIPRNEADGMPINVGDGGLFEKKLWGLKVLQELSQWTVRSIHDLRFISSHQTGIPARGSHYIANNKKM
T1 chain 2: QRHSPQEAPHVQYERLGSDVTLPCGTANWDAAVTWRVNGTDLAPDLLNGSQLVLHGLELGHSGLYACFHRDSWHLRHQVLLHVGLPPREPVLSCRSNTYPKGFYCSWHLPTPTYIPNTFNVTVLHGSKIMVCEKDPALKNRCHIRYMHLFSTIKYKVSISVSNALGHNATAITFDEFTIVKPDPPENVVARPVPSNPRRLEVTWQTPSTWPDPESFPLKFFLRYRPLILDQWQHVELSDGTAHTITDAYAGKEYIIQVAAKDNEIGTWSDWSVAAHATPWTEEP
T1 chain 3: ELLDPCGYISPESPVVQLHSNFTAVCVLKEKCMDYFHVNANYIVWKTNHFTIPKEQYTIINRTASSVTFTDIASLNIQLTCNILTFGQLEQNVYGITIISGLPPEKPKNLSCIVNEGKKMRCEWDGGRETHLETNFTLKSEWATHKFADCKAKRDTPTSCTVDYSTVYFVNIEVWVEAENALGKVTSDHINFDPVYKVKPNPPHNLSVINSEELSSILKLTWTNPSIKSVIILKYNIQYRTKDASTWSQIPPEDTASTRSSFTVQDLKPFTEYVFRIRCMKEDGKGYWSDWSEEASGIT

B1: Ciliary Neurotrophic Factor (CNTF) (ligand, human, UniProt P26441 1-200, looked up)
chain: T1 chain 1
B2: Leukemia Inhibitory Factor Receptor LIF-R (D1-D5) (domain or fragment, human)
chain: DLKCVTNNLQVWNCSWKAPSGTGRGTDYEVCIENRSRSCYQLEKTSIKIPALSHGDYEITINSLHDFGSSTSKFTLNEQNVSLIPDTPEILNLSADFSTSTLYLKWNDRGSVFPHRSNVIWEIKVLRKESMELVKLVTHNTTLNGKDTLHHWSWASDMPLECAIHFVEIRCYIDNLHFSGLEEWSDWSPVKNISWIPDSQTKVFPQDKVILVGSDITFCCVSQEKVLSALIGHTNCPLIHLDGENVAIKIRNISVSASSGTNVVFTTEDNIFGTVIFAGYPPDTPQQLNCETHDLKEIICSWNPGRVTALVGPRATSYTLVESFSGKYVRLKRAEAPTNESYQLLFQMLPNQEIYNFTLNAHNPLGRSQSTILVNITEKVYPHTPTSFKVKDINSTAVKLSWHLPGNFAKINFLCEIEIKKSNSVQEQRNVTIKGVENSSYLVALDKLNPYTLYTFRIRCSTETFWKWSKWSNKKQHLTTEAS

Key:
[1] = target: B2; test: ITC
[2] = target: T1, gp130/CNTF-Rα/CNTF ternary complex; test: ITC

| binding result [1] | stoichiometry N [2] | Binder |
| --- | --- | --- |
| binds |  | B1 |
|  | 1 | B2 |
